# In the supplement of paper PMC10567573:
# B1: C19orf51 (parent)
# chain: FAPQTGARPSETFARFCKSQESAL
# Variants of: B1
# Assay: protein stability index of a GFP-peptide fusion (GPS, HEK-293T) (PSI 1-6); higher = more stable
# Details: c terminus: a fixed tail appended
# 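Also: lentivirally expressed fusions sorted by FACS into six bins by GFP to DsRed ratio, PSI derived from sequencing read proportions per bin multiplied by bin number.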
row,Variant,protein stability index
1,F16R,1.4
2,F16N,1.93
3,F16G,2.38
4,F16T,2.52
5,F16S,2.79
6,F16K,2.31
7,F16L,3.42
8,F16I,1.89
9,F16H,2.07
10,F16Q,1.54
11,F16A,2.44
12,F16D,1.77
13,F16E,1.54
14,F16C,2.62
15,P9W,1.65
16,P9Q,2.77
17,P9G,2.57
18,P9R,2.62
19,P9N,2.23
20,P9E,1.18
21,P9I,2.25
22,P9M,2.92
23,P9L,1.06
24,P9D,1.23

row,Variant,protein stability index
1,P9K,2.47
2,P9C,3.58
3,P9H,2.82
4,P9T,3.29
5,P9Y,3.62
6,T12H,1.87
7,T12E,1.4
8,T12V,2.77
9,T12Y,2.48
10,T12D,1.99
11,T12M,2.29
12,T12G,1.46
13,T12N,2.66
14,T12P,1.82
15,T12L,2.87
16,T12R,2.39
17,T12Q,1.35
18,T12F,2.96
19,A14N,1.44
20,A14G,1.74
21,A14V,2.17
22,A14E,1.77
23,A14F,1.33
24,A14T,2.09

row,Variant,protein stability index
1,A14M,3.45
2,A14L,2.12
3,A14I,3.27
4,A14R,1.82
5,A14C,1.69
6,A14D,1.69
7,A14Q,2.63
8,A14S,1.89
9,A14Y,3.2
10,E21I,1.97
11,E21D,2.04
12,E21A,2.86
13,E21C,1.97
14,E21G,3
15,E21H,3.63
16,E21M,2.35
17,E21N,1.79
18,E21R,4.11
19,E21Q,2.79
20,E21F,1.76
21,E21K,1.85
22,E21W,3.29
23,E21P,1.88
24,E21Y,2.22

row,Variant,protein stability index
1,K18S,2.39
2,K18N,1.3
3,K18V,2.45
4,K18C,2.44
5,K18G,2.56
6,K18I,2.29
7,K18T,2.6
8,K18Y,1.99
9,K18P,2.61
10,K18L,2.2
11,K18Q,1.81
12,K18H,2.19
13,K18D,1.1
14,K18E,1.92
15,S22G,3.57
16,S22H,1.98
17,S22K,1.33
18,S22W,1
19,S22E,1.58
20,S22C,2.31
21,S22Y,1.93
22,S22V,1.8
23,S22L,2.08
24,S22I,3.24

row,Variant,protein stability index
1,S22D,2.04
2,S22P,3.4
3,S22R,1.51
4,S22T,1.88
5,S22F,2.18
6,E11Y,3.29
7,E11I,1.72
8,E11D,1.85
9,E11K,1.03
10,E11L,2.27
11,E11F,3.67
12,E11H,2.47
13,E11C,2.86
14,E11T,1.96
15,E11N,3.64
16,E11M,3.05
17,E11S,3.19
18,E11A,1.55
19,E11R,2.15
20,E11G,1.54
21,S10E,1.43
22,S10F,2.11
23,S10L,1.58
24,S10I,2.32

row,Variant,protein stability index
1,S10H,2.76
2,S10A,2.32
3,S10N,1.72
4,S10K,2.62
5,S10T,2.25
6,S10C,2.34
7,S10R,2.34
8,S10Q,1.96
9,S10G,2.46
10,Q20A,2.13
11,Q20L,1.65
12,Q20K,1.99
13,Q20N,1.76
14,Q20G,1.84
15,Q20R,4.59
16,Q20E,2.48
17,Q20I,2.92
18,Q20Y,2.31
19,Q20P,2.65
20,Q20H,1.89
21,Q20T,3.01
22,Q20D,2.51
23,Q20M,1.72
24,Q20F,1.73

row,Variant,protein stability index
1,Q20C,3
2,Q20V,1.73
3,L24G,2.81
4,L24Y,3.96
5,L24P,1.23
6,L24Q,1.23
7,L24A,3.59
8,L24D,1.88
9,L24K,2.02
10,L24N,2.58
11,L24T,2.27
12,L24C,3.32
13,L24R,4.53
14,L24F,3.1
15,L24M,1.56
16,L24H,1.83
17,L24E,3.37
18,R15V,3.42
19,R15S,1.08
20,R15D,1.27
21,R15E,2.65
22,R15A,2.94
23,R15F,1.72
